Assay results as given in patent US20150098941A1 (Chugai, published 2015).
Substitutions are numbered along the chain they refer to. Numbers in names are those of the source. Blank lines part the entries; values can stand above or below the binder they belong to.

Biological target: T1, fused protein GST-GPC3 (GST and human glypican-3 peptide of SEQ ID NO: 16) (human, UniProt P51654 524-563)
T1 construct: It was immobilized on a BIACORE chip; also called GPC3 peptide; not shown: GST (glutathione S-transferase)
T1 sequence (P51654 524-563 limits assumed): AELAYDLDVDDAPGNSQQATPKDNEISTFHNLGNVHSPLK
Experiment: SPR (BIACORE 3000), CHO culture supernatant over immobilized GST-GPC3
Method: This was introduced into 2×10⁶/0.6 ml PBS(−) of CHO cells (strain DXB11S) according to an electroporation method under a condition of 1.5 kV and 25 uF. The cells were incubated in a 8% CO₂ incubator at 37° C. The cells were screened in CHO-S-SFMII medium (Invitrogen) containing 400 μg/ml of geneticin. Selected cells were inoculated into a CHO-S-SFMII medium containing 400 μg/ml geneticin in a 96-well plate at 0.4 cells/100 μl/well, and the cells were cloned according to a limiting dilution method. The culture supernatant was analyzed with BIACORE 3000. The antigen was quantified using a chip with fused protein GST-GPC3 (antigen GST and human glypican-3 shown by SEQ ID NO:16) immobilized thereon, and high-expression cells were selected.

B1: Fc-modified humanized anti-GPC3 antibody V209 (S239D/A330L/I332E) (antibody, human IgG1)
heavy: QVQLVQSGAEVKKPGASVKVSCKASGYTFTDYEMHWVRQAPGQGLEWMGALDPKTGDTAYSQKFKGRVTLTADKSTSTAYMELSSLTSEDTAVYYCTRFYSYTYWGQGTLVTVSSASTKGPSVFPLAPSSKSTSGGTAALGCLVKDYFPEPVTVSWNSGALTSGVHTFPAVLQSSGLYSLSSVVTVPSSSLGTQTYICNVNHKPSNTKVDKKVEPKSCDKTHTCPPCPAPELLGGPDVFLFPPKPKDTLMISRTPEVTCVVVDVSHEDPEVKFNWYVDGVEVHNAKTKPREEQYNSTYRVVSVLTVLHQDWLNGKEYKCKVSNKALPLPEEKTISKAKGQPREPQVYTLPPSRDELTKNQVSLTCLVKGFYPSDIAVEWESNGQPENNYKTTPPVLDSDGSFFLYSKLTVDKSRWQQGNVFSCSVMHEALHNHYTQKSLSLSPGK
VL: DVVMTQSPLSLPVTPGEPASISCRSSQSLVHSNGNTYLHWYLQKPGQSPQLLIYKVSNRFSGVPDRFSGSGSGTDFTLKISRVEAEDVGVYYCSQNTHVPPTFGQGTKLEIK
notes: G1m(1) allotype
binding result: binds

B2: Fc-modified humanized anti-GPC3 antibody V212 (S239D/S298A/I332E) (antibody, human IgG1)
heavy: B1 heavy with S296A, L328A
VL: B1 VL
notes: also called pC-aGPChl (212)
binding result: binds

B3: Fc-modified humanized anti-GPC3 antibody V209 nG1m(1) allotype (S239D/A330L/I332E/D356E/L358M) (antibody, human IgG1, name in EU numbering)
heavy: B1 heavy with D354E, L356M
VL: B1 VL
binding result: binds

Now from value to binder:

binding result: binds
B4: Fc-modified humanized anti-GPC3 antibody V922 (S239D/K326T/I332E) (antibody, human IgG1)
heavy: B1 heavy with K324T, L328A
VL: B1 VL

binding result: binds
B5: Fc-modified humanized anti-GPC3 antibody V22 (I332E) (antibody)
heavy: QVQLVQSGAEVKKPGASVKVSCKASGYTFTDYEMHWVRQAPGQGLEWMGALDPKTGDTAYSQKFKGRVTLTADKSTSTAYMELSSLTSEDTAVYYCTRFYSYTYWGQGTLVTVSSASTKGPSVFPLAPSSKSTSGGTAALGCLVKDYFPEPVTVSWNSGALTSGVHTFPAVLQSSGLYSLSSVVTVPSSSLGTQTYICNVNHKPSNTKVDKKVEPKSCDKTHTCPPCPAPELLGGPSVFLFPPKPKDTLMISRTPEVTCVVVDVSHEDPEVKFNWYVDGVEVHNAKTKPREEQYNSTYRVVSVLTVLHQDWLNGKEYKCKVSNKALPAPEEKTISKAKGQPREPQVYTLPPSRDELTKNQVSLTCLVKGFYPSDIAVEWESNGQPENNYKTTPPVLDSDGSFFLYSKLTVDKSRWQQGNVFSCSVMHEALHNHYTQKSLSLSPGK
VL: B1 VL
notes: also called pC-aGPChl (22)
